The series concerns the molecule itself. The series is described as follows: SEC; Superdex-200 (1×30 cm) in buffer A (50 mM Tris-HCl pH 7.6, 100 mM KCl, 5 mM DTT, 10% glycerol, 0.01% Triton X-100) with 15 mM ATP and 10 mM MgCl2; protein pre-incubated with 15 mM ATP and 10 mM MgCl2 for 30 min at 25°C; monomer to hexamer; fractions checked by SDS-PAGE. (SEC sorts molecules by how far they enter the pores of the column.)

B1: ClpC1-Δ3 (N-terminal truncated mutant, both N-terminal domains deleted) (domain or fragment)
chain: REGEGVAAQVLVKLGAELTRVRQQVIQLLSGYQGKEAAEAGTGGRGGESGSPSTSLVLDQFGRNLTAAAMEGKLDPVIGREKEIERVMQVLSRRTKNNPVLIGEPGVGKTAVVEGLAQAIVHGEVPETLKDKQLYTLDLGSLVAGSRYRGDFEERLKKVLKEINTRGDIILFIDELHTLVGAGAAEGAIDAASILKPKLARGELQTIGATTLDEYRKYIEKDAALERRFQPVQVGEPTVEHTIEILKGLRDRYEAHHRVSITDAAMVAAATLADRYINDRFLPDKAIDLIDEAGARMRIRRMTAPPDLREFDEKIAEARREKESAIDAQDFEKAASLRDREKTLVAQRAEREKQWRSGDLDVVAEVDDEQIAEVLGNWTGIPVFKLTEAETTRLLRMEEELHKRIIGQEDAVKAVSKAIRRTRAGLKDPKRPSGSFIFAGPSGVGKTELSKALANFLFGDDDALIQIDMGEFHDRFTASRLFGAPPGYVGYEEGGQLTEKVRRKPFSVVLFDEIEKAHQEIYNSLLQVLEDGRLTDGQGRTVDFKNTVLIFTSNLGTSDISKPVGLGFSKGGGENDYERMKQKVNDELKKHFRPEFLNRIDDIIVFHQLTREEIIRMVDLMISRVAGQLKSKDMALVLTDAAKALLAKRGFDPVLGARPLRRTIQREIEDQLSEKILFEEVGPGQVVTVDVDNWDGEGPGEDAVFTFTGTRKPPAEPDLAKAGAHSAGGPEPAAR
Regarding B1, the binding result was “binds”.

Values taken from PMC3527473, “The C-Terminus of ClpC1 of Mycobacterium tuberculosis Is Crucial for Its Oligomerization and Function” (PLoS ONE, 2012).
